Like-named read-outs stand apart in the source and are kept apart here. One block for each binder: values may come before it. Bridge positions count the residues as written; N and C are the ends. Square brackets hold non-standard residues; d marks the D form. Ends that are not written are not given here. NMeL = CN[C@@H](CC(C)C)C(=O)O; Pen = CC(C)(S)[C@H](N)C(=O)O; Sar = CNCC(=O)O
Tests used:
[1] = biological target: T1, soluble human FcRn (shFcRn) (human, UniProt P55899 24-297; P61769 21-119); assay: IgG competition ELISA
T1 construct: Biotinylated for the ELISA, amine-coupled to a CM5 chip for SPR; also called biotinylated shFcRn

[2] = biological target: T1, soluble human FcRn (shFcRn); assay: SPR pH 6; Peptide No. 31: lower-case c at both Cys (QRF-c-…-c-NGP)
Experimental: (§1) The following steps were performed to cross-link soluble human or cynomolgus FcRn to the dextran surface of a CM5 sensor chip (Biacore AB, Uppsala, Sweden) by an amine coupling reaction involving 1-ethyl-(3-dimethylaminopropyl)-carbodiimide hydrochloride (EDC) (Biacore AB, Uppsala, Sweden) and N-hydroxysuccinimide (NHS) (Biacore AB, Uppsala, Sweden) as recommended by Biacore (BIAapplications Handbook, version AB, section 4.2, Biacore AB, Uppsala, Sweden). […] Residual sites on the FcRn flow cell were blocked with 1 M ethanolamine hydrochloride pH 8.5 (Biacore AB, Uppsala, Sweden). A control flow cell was blocked with ethanolamine for reference subtraction. For analysis of the monomeric peptides, FcRn was coated to a final density of 4000-5000 response units (RU). For analysis of the peptide dimers, FcRn was coated to a density of 2000-2500 RU. All SPR measurements were performed using a BIACORE 3000 Instrument (Biacore AB Uppsala, Sweden). For measurements done at either pH 6 or pH 7.4, experiments were performed in 50 mM phosphate, 100 mM sodium chloride, 0.01% surfactant P20 (Biacore AB, Uppsala, Sweden).
(§2) Ten, 2-fold dilutions of the peptide were injected over the FcRn-CM5 chip at a rate of 20 μl/min for 2 min. The peptide was dissociated from the chip for 2.5 minutes with buffer. […] Sensorgrams were generated and analyzed using BiaEval software version 3.1 (Biacore AB, Uppsala, Sweden). […]

[3] = biological target: T1, soluble human FcRn (shFcRn); assay: IgG competition ELISA; remark: listed apart in the source
Experimental: (§3) The wells were coated with 100 μl/well of 1 μg/ml biotinylated-shFcRn in Buffer A. The plate was sealed and incubated at 37° C. for 2 hours. Afterwards, the plate was washed with 200 μl/well of Buffer B (Buffer B: 100 mM MES pH 6, 150 mM NaCl, 0.5% BSA IgG-free (Jackson ImmunoResearch, West Grove, Pa.), 0.05% Tween-20). […] To allow for mixing, the plate was rocked for 2 minutes, sealed and incubated at 37° C. for 2 hours. […] The plate was covered, incubated for 30 minutes at room temperature and washed 4 times with 200 μl/well of ice-cold buffer B. SureBlue TMB substrate solution (100 μl/well, KPL, Gaithersburg, Md.) was added and the plate was allowed to incubate at room temperature until color developed, which took 5 to 10 minutes. Once color developed, 100 μl/well of TMB stop solution (KPL, Gaithersburg, Md.) was added and the absorbance was measured at 450 nm. The data was plotted as absorbance vs. peptide concentration to derive the inhibitory concentration 50% (IC₅₀) values.

[4] = biological target: T1, soluble human FcRn (shFcRn); assay: IgG competition ELISA; remark: listed apart in the source
Experimental: as §3

[5] = biological target: T1, soluble human FcRn (shFcRn); assay: SPR pH 6; ThienylAla in place of His
Experimental: as §1, §2

[6] = biological target: T1, soluble human FcRn (shFcRn); assay: SPR pH 7.4; ThienylAla in place of His
Experimental: as §1, §2

[7] = biological target: T1, soluble human FcRn (shFcRn); assay: SPR pH 6
Experimental: as §1
(§4) Ten, 2-fold dilutions of the peptide were injected over the FcRn-CM5 chip at a rate of 20 μl/min for 2 min. The peptide was dissociated from the chip for 2.5 minutes with buffer. Any remaining peptide was removed from the chip with a 30 second injection of HBS-P buffer (Biacore AB, Uppsala, Sweden) at a rate of 30 μl/min. Sensorgrams were generated and analyzed using BiaEval software version 3.1 (Biacore AB, Uppsala, Sweden). The equilibrium RU observed for each injection was plotted against concentration. The equilibrium KD values were derived by analysis of the plots using the steady state affinity model included in the BiaEval software.

[8] = biological target: T1, soluble human FcRn (shFcRn); assay: SPR pH 6; remark: listed apart in the source
Experimental: as §1, §4

[9] = biological target: T1, soluble human FcRn (shFcRn); assay: SPR pH 6; remark: listed apart in the source
Experimental: as §1, §2

[10] = biological target: T1, soluble human FcRn (shFcRn); assay: SPR pH 6; remark: listed apart in the source
Experimental: as §1, §4

[11] = biological target: T1, soluble human FcRn (shFcRn); assay: SPR pH 6; remark: listed apart in the source
Experimental: as §1, §2

[12] = biological target: T1, soluble human FcRn (shFcRn); assay: SPR pH 6; remark: listed apart in the source
Experimental: as §1, §4

[13] = biological target: T1, soluble human FcRn (shFcRn); assay: SPR pH 6; remark: listed apart in the source
Experimental: as §1, §4

[14] = biological target: T1, soluble human FcRn (shFcRn); assay: SPR pH 6; remark: listed apart in the source
Experimental: as §1, §2

[15] = biological target: T1, soluble human FcRn (shFcRn); assay: SPR pH 6; remark: listed apart in the source
Experimental: as §1, §4

[16] = biological target: T1, soluble human FcRn (shFcRn); assay: SPR pH 6; remark: listed apart in the source
Experimental: as §1, §2

[17] = biological target: T1, soluble human FcRn (shFcRn); assay: SPR pH 6; remark: listed apart in the source
Experimental: as §1, §4

[18] = biological target: T1, soluble human FcRn (shFcRn); assay: IgG competition ELISA; remark: listed apart in the source
Experimental: as §3

[19] = biological target: T1, soluble human FcRn (shFcRn); assay: IgG competition ELISA; remark: listed apart in the source
Experimental: as §3

[20] = biological target: T1, soluble human FcRn (shFcRn); assay: IgG competition ELISA; remark: listed apart in the source
[21] = biological target: T1, soluble human FcRn (shFcRn); assay: IgG competition ELISA; remark: listed apart in the source
Experimental: as §3

[22] = biological target: T1, soluble human FcRn (shFcRn); assay: IgG competition ELISA; remark: listed apart in the source
Experimental: as §3

[23] = biological target: T1, soluble human FcRn (shFcRn); assay: IgG competition ELISA; remark: listed apart in the source
Experimental: as §3

[24] = biological target: T1, soluble human FcRn (shFcRn); assay: IgG competition ELISA; remark: listed apart in the source
[25] = biological target: T1, soluble human FcRn (shFcRn); assay: IgG competition ELISA; remark: listed apart in the source
Experimental: as §3

[26] = biological target: T1, soluble human FcRn (shFcRn); assay: IgG competition ELISA; remark: listed apart in the source
Experimental: as §3

[27] = biological target: T1, soluble human FcRn (shFcRn); assay: SPR pH 6; 4-PyridylAla in place of His
Experimental: as §1, §2

[28] = biological target: T1, soluble human FcRn (shFcRn); assay: SPR pH 7.4; 4-PyridylAla in place of His
Experimental: as §1, §2

[29] = biological target: T1, soluble human FcRn (shFcRn); assay: SPR pH 6; Orn in place of His
Experimental: as §1, §2

[30] = biological target: T1, soluble human FcRn (shFcRn); assay: IgG competition ELISA; remark: listed apart in the source
Experimental: as §3

[31] = biological target: T1, soluble human FcRn (shFcRn); assay: SPR pH 7.4
Experimental: as §1, §2

[32] = biological target: T1, soluble human FcRn (shFcRn); assay: SPR pH 6; 4-PiperidylAla in place of His
Experimental: as §1, §2

[33] = biological target: T1, soluble human FcRn (shFcRn); assay: SPR pH 7.4; 4-PiperidylAla in place of His
Experimental: as §1, §2

[34] = biological target: T1, soluble human FcRn (shFcRn); assay: SPR pH 6; 3PyridylAla in place of His
Experimental: as §1, §2

[35] = biological target: T1, soluble human FcRn (shFcRn); assay: SPR pH 7.4; 3PyridylAla in place of His
Experimental: as §1, §2

[36] = biological target: T1, soluble human FcRn (shFcRn); assay: SPR pH 6; 2-PyrrolidinylAla in place of His
Experimental: as §1, §2

- IC50 [4]: 1300 nM
- Kd [27]: 67 nM
- Kd [28]: 280 nM
Binder: RFCTGXFGGLYPC (Pen 3; 4-PyridylAla 6; Sar 9; NMeLeu 10; disulfide 3-13; C-terminal amide) [Peptide No. 268]

- IC50 [30]: 18 nM
B3: Peptide No. 289 (peptide)
peptide: RF[Pen]TGHFG[Sar][NMeL]YPC-NH2
modifications: disulfide 3-13; also: dimer: N-termini joined by an Asp linker carrying PEG 30 kDa, further groups not given here
notes: site of PEG only in drawing CHEM-US-00136; also called Pegylated Analog of Peptide No. 285

- IC50 [4]: 85000 nM
- Kd [32]: 5200 nM
- Kd [33]: 6400 nM
Binder: RFCTGXFGGLYPC (Pen 3; 4-PiperidylAla 6; Sar 9; NMeLeu 10; disulfide 3-13; C-terminal amide) [Peptide No. 264]

- Kd [36]: 8400 nM
Binder: RFCTGXFGGLYPC (Pen 3; 2-PyrrolidinylAla 6; Sar 9; NMeLeu 10; disulfide 3-13; C-terminal amide) [Peptide No. 262]

Further lines, the binder ahead of its results:

B1: Peptide No. 31 (peptide)
peptide: QRF[dC]TGHFGGLYP[dC]NGP-NH2
modifications: disulfide 4-14; N-terminus assumed
SMILES: CC(C)C[C@@H]1NC(=O)CNC(=O)CNC(=O)[C@H](Cc2ccccc2)NC(=O)[C@H](Cc2c[nH]cn2)NC(=O)CNC(=O)[C@H]([C@@H](C)O)NC(=O)[C@H](NC(=O)[C@H](Cc2ccccc2)NC(=O)[C@H](CCCNC(=N)N)NC(=O)[C@@H](N)CCC(N)=O)CSSC[C@H](C(=O)N[C@@H](CC(N)=O)C(=O)NCC(=O)N2CCC[C@H]2C(N)=O)NC(=O)[C@@H]2CCCN2C(=O)[C@H](Cc2ccc(O)cc2)NC1=O
- IC50 [1]: > 500000 nM
- Kd [2]: 200000 nM

Binder: QRFVTGHFG[dP]LYPVNGP-NH2 [Peptide No. 167]
- IC50 [3]: 93000 nM

Binder: RFCTGXFGGLYPC (Pen 3; ThienylAla 6; Sar 9; NMeL 10; disulfide 3-13; C-terminal amide) [Peptide No. 251]
- IC50 [4]: 45000 nM
- Kd [5]: 2000 nM
- Kd [6]: 3000 nM

B2: Peptide No. 32 (peptide)
peptide: QRF[Pen]TGHFGGLYPCNGP-NH2
modifications: disulfide 4-14; N-terminus assumed
SMILES: CC(C)C[C@@H]1NC(=O)CNC(=O)CNC(=O)[C@H](Cc2ccccc2)NC(=O)[C@H](Cc2c[nH]cn2)NC(=O)CNC(=O)[C@H]([C@@H](C)O)NC(=O)[C@@H](NC(=O)[C@H](Cc2ccccc2)NC(=O)[C@H](CCCNC(=N)N)NC(=O)[C@@H](N)CCC(N)=O)C(C)(C)SSC[C@@H](C(=O)N[C@@H](CC(N)=O)C(=O)NCC(=O)N2CCC[C@H]2C(N)=O)NC(=O)[C@@H]2CCCN2C(=O)[C@H](Cc2ccc(O)cc2)NC1=O
- Kd [7]: 250 nM
- Kd [8]: 250 nM
- Kd [9]: 250 nM
- Kd [10]: 250 nM
- Kd [11]: 250 nM
- Kd [12]: 250 nM
- Kd [13]: 250 nM
- Kd [14]: 250 nM
- Kd [15]: 250 nM
- Kd [16]: 250 nM
- Kd [17]: 250 nM
- IC50 [1]: 2000 nM
- IC50 [18]: 2000 nM
- IC50 [19]: 2000 nM
- IC50 [20]: 2000 nM
- IC50 [21]: 2000 nM
- IC50 [22]: 2000 nM
- IC50 [23]: 2000 nM
- IC50 [24]: 2000 nM
- IC50 [25]: 2000 nM
- IC50 [26]: 2000 nM
- IC50 [4]: 2000 nM

Binder: RFCTGXFGGLYPC (Pen 3; Orn 6; Sar 9; NMeL 10; disulfide 3-13; C-terminal amide) [Peptide No. 254]
- Kd [29]: 1300 nM

B4: Peptide No. 24 (peptide)
peptide: QRFCTGHF[dA][dA]LYPCNGP-NH2
modifications: disulfide 4-14; N-terminus assumed
SMILES: CC(C)C[C@@H]1NC(=O)[C@@H](C)NC(=O)[C@@H](C)NC(=O)[C@H](Cc2ccccc2)NC(=O)[C@H](Cc2c[nH]cn2)NC(=O)CNC(=O)[C@H]([C@@H](C)O)NC(=O)[C@@H](NC(=O)[C@H](Cc2ccccc2)NC(=O)[C@H](CCCNC(=N)N)NC(=O)[C@@H](N)CCC(N)=O)CSSC[C@@H](C(=O)N[C@@H](CC(N)=O)C(=O)NCC(=O)N2CCC[C@H]2C(N)=O)NC(=O)[C@@H]2CCCN2C(=O)[C@H](Cc2ccc(O)cc2)NC1=O
- Kd [31]: > 250000 nM

Binder: RFCTGXFGGLYPC (Pen 3; 3PyridylAla 6; Sar 9; NMeL 10; disulfide 3-13; C-terminal amide) [Peptide No. 250]
- IC50 [4]: 1200 nM
- Kd [34]: 64 nM
- Kd [35]: 260 nM

Source: patent publication US20110059889A1 (SYNTONIX PHARMACEUTICALS, published 2011)
